Measurements taken from patent publication US20190161756, “Anti-Immunoglobulin G Aptamers and Uses Thereof” (Laboratoire Francais du Fractionnement et des …, published 2019).

B1: A6-8 (ssDNA)
DNA: GGGTCAATGCCAGGTCTCCACGGTATAGTCTCGCCCAGTGCCCTTTGTTGGACTTCCTATCGGCTCGCAAGCAGTC
modifications: 5' biotin-triethylene glycol spacer
B2: A6-3 (ssDNA)
DNA: GGGTCAATGCCAGGTCTCGACTATTCCTCCGGCCTCTTCCCTAATCAGTGGCATCTCTATCGGCTCGCAAGCAGTC
modifications: 5' biotin-triethylene glycol spacer
B3: A6-4 (ssDNA)
DNA: GGGTCAATGCCAGGTCTCAAGTTTGTGGGGCTGGGGTTCGGTCCTGGCACAAATTCGTATCGGCTCGCAAGCAGTC
modifications: 5' biotin-triethylene glycol spacer
B4: A6-2 (ssDNA)
DNA: GGGTCAATGCCAGGTCTCCCCAGCCTCATCTCACGGCATAGTCTCGCCACACTGGAAATCGGCTCGCAAGCAGTC
modifications: 5' biotin-triethylene glycol spacer (SPR); 5' amino-C6 spacer and 3' idT (chromatography)

Key:
Details in all cases: chain copies: 2; label: biotin
[1] = biological target: T1, IgG4 (plasma IgG sub-class) (Homo sapiens, UniProt P01861-1 P01861-1:1-327); experiment: SPR; pH 5.5; resistant to 2 M NaCl
Protocol: (§1) Plasma IgG's sub-classes were injected at pH 5.5 (in duplicates), whereby a complex was formed as evidenced by the increase of the signal. […] The solid support was then regenerated by injection of a solution of NaOH at 50 mM. X-axis: time in s. Y-axis: SPR response in arbitrary scale.
(§2) The selected aptamer was synthetized with Biotin and a triethylene glycol spacer at the 5′ end of the oligonucleotide. A 1 μM solution of the aptamer was prepared using the SELEX selection buffer. The aptamer solution was heated to 90° C. for 5 min, incubated on ice for 5 min and equilibrated to room temperature for 10 min. The preparation was injected on a streptavidin coated sensor chip SA of Biacore T200 instrument (GE Healthcare) at a flow rate of 10 μl/min for 7 min. Then, different concentrations of the target (Human polyclonal IgG, purified from human plasma with a purity of >95%) were injected to the immobilised aptamer at 30 μl/min for 1 minute. After dissociation for 1-2 min a wash step was performed by injecting a suitable wash buffer at 30 μl/min for 1 min. For elution, a suitable elution buffer was injected at 30 μl/min for 1-2 min Finally the sensor chip was regenerated by injection of 50 mM NaOH at 30 μl/min for 30 sec. During the course of the experiment the response signal was recorded in a sensorgram.

[2] = biological target: T1, IgG4 (plasma IgG sub-class); experiment: SPR; pH 5.5; faster association, partly eluted by 2 M NaCl
Protocol: as §1, §2

[3] = biological target: T1, IgG4 (plasma IgG sub-class); experiment: SPR; pH 5.5; resistant to 2 M NaCl; remark: listed apart in the source

T1 sequence (P01861 other isoform, or with tags, fused parts or gaps): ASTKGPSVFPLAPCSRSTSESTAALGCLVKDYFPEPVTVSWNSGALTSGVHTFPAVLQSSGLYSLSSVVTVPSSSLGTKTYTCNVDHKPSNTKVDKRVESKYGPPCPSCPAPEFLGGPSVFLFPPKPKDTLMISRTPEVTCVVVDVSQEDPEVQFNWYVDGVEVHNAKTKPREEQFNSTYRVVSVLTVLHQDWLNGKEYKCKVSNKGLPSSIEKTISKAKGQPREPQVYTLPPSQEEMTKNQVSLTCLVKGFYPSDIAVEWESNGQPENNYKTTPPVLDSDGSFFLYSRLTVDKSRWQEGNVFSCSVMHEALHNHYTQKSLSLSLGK

Binder | binding result [3] | also measured
B1 |  | binding result [1]: binds
B2 |  | binding result [2]: binds
B3 | binds | 
B4 | binds | 
